Source: US20080138847A1, “Bcl-2 family member and BH-3 only proteins for use in development of peptidomimetics” (priority 2004, published 2008)
“Also recorded” adds a separate entry of the source. Where no end group is shown, it is not given here.

T1: CED-9 protein (residues 1-251) (Caenorhabditis elegans, UniProt P41958)
T1 construct: made in house
T1 sequence (P41958 1-251): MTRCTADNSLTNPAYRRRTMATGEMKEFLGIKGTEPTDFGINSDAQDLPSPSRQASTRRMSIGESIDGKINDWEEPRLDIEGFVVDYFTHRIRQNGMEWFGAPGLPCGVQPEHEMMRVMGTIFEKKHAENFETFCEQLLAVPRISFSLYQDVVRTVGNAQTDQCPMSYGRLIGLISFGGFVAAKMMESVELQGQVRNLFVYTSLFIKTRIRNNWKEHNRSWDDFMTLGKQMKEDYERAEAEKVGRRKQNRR

T2: CED-4/CED-9 complex (Caenorhabditis elegans, UniProt P41958)
T2 sequence (P41958 1-251 limits assumed): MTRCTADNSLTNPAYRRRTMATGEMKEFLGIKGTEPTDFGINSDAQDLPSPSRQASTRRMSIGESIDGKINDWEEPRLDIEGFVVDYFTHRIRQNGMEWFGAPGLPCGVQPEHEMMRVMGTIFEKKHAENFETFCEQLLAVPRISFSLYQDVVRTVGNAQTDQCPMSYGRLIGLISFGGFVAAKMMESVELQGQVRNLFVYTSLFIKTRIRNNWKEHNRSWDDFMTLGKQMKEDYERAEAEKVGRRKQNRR

T3: CED-4 (Caenorhabditis elegans, UniProt P30429)
T3 sequence (P30429 1-549): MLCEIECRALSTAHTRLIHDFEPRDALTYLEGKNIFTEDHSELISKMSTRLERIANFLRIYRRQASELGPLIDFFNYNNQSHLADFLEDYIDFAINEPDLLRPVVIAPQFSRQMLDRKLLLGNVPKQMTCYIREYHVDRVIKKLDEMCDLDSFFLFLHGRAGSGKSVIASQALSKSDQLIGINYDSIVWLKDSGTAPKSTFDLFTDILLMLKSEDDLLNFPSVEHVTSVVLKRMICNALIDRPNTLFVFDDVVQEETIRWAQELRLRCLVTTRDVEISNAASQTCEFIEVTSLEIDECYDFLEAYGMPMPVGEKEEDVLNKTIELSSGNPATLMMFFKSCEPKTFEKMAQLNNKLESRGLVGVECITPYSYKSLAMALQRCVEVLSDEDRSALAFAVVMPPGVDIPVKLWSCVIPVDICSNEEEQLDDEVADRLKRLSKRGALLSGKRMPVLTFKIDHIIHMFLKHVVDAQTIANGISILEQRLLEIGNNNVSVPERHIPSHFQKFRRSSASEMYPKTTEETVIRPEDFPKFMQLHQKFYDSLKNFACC


How the values were obtained:
[1] = target: T1, CED-9 protein (residues 1-251); assay: GST-EGL-1 fragment/mutant interaction with CED-9 (GST-mediated pull-down assay); assay type: binding, C. elegans; settings: GST-EGL-1 fragments or mutants, in vitro
Protocol: This example describes the characterization of EGL-1/CED-9 interactions. To determine the mechanism of CED-9 recognition by EGL-1, the EGL-1/CED-9 interaction was characterized. Various fragments of the GST-EGL-1 protein were evaluated for their abilities to interact with the CED-9 protein (residues 1-251).
To further characterize EGL-1/CED-9 interactions, a number of missense mutations were introduced into EGL-1 and the ability of the resulting EGL-1 mutants to interact with CED-9 was determined.
This example describes the biochemical and functional analysis of EGL-1/CED-9 interactions. To corroborate the structural analysis, mutations on the interface residues of EGL-1 were examined for their potential to weaken or disrupt its binding to CED-9. Various mutant EGL-1 fragments were purified as fusion proteins with glutathione S-transferase (GST) and their interactions with CED-9 were investigated using a GST-mediated pull-down assay.

CED-4/CED-9 complex = target: T2, CED-4/CED-9 complex; assay: CED-4 displacement assay (pre-assembled CED-4/CED-9 complex on glutathione resin challenged with EGL-1 fragments); assay type: biochemical, C. elegans; settings: in vitro, remaining complex visualized on SDS polyacrylamide gel
Text: EGL-1 induces apoptosis by displacing CED-4 from the CED-4/CED-9 complex. To recapitulate this finding in vitro, a CED-4 displacement assay was designed in which pre-assembled CED-4/CED-9 complex was immobilized on glutathione resin and was then challenged with various EGL-1 fragments. After extensive washing, the remaining CED-4/CED-9 complex was eluted from the resin and visualized on SDS polyacrylamide gel. […] In contrast, most missense mutations at the EGL-1/CED-9 interface weakened the ability of EGL-1 to displace CED-4 from the CED-4/CED-9 complex. […] The in vitro studies are in complete agreement with the structural observation.

[2] = test system: ced-1 (e1735); egl-1 (n1084 n3082) animals; assay: in vivo cell killing: cell corpses in four-fold transgenic embryos after heat-shock expression of EGL-1 fragments; design: species or system C. elegans; settings: anterior head region of four-fold transgenic embryos; heat-shock promoter expression
Protocol: In this example, the ability of EGL-1 mutants to disrupt the CED-4/CED-9 complex was tested. […] To examine this scenario, constructs were injected into ced-1 (e1735); egl-1 (n1084 n3082) animals that direct expression of various EGL-1 fragments under the control of the C. elegans heat-shock promoters. Cell corpses were scored in the anterior head region of four-fold transgenic embryos after the heat-shock treatment.

CED-4 = target: T3, CED-4; assay: interaction of CED-9 surface mutants with CED-4; assay type: binding, C. elegans; settings: purified CED-9 mutant proteins
Protocol: This example describes the biochemical analysis of CED-4/CED-9 interactions. To further define the molecular mechanisms by which EGL-1 induces the release of CED-4 from CED-9-mediated sequestration, the identify of surface residues in CED-9 that are important for binding to CED-4 was analyzed. It was hypothesized that for molecular recognition to occur, at least some of the CED-9 residues that are important for binding to CED-4 must be solvent-exposed prior to binding. Therefore, the structure of CED-9 in isolation was examined and a total of 44 amino acids were identified, each with at least 30% of its surface area exposed to solvent. These 44 amino acids were grouped based on primary sequences and 20 CED-9 mutant clones were generated, each containing 1-5 missense mutations that together covering all 44 solvent-exposed residues. All 20 CED-9 proteins were cloned into an expression vector and over-expressed in E. coli and purified to homogeneity.
Next, the abilities of these CED-9 mutants to interact with CED-4 was examined. […] This surface patch may constitute the primary CED-4-binding motif. None of the other 16 mutations, which cover the entirety of the CED-9 surface, affected the CED-4/CED-9.

[3] = listed as EGL-1 double mutant (G55E/F65A)

Molecule | interaction with (binding to) CED-9 [1] | ability to displace CED-4 from the CED-4/CED-9 complex (CED-4/CED-9 complex) | cell killing (cell corpses induced) [2] | other results
C-terminal half of EGL-1 (amino acids 45-87): C-terminal half of EGL-1, residues 45-87 (SEISSIGYEIGSKLAAMCDDFDAQMMSYSAHASDRSLFHRLLD) | necessary and sufficient; also recorded: formed a stable complex | completely displaced CED-4 | necessary and sufficient | 
C-terminal half of EGL-1 (residues 45-91): C-terminal half of EGL-1, residues 45-91 (EDSSQFADDSGFFDDSEISSIGYEIGSKLAAMCDDFDAQMMSYSAHA; UniProt O61667 45-91, looked up, fragment) | formed a stable complex |  |  | 
EGL-1 C-terminal fragment (residues 46-87): EGL-1 C-terminal fragment residues 46-87 expressed in vivo (DSSQFADDSGFFDDSEISSIGYEIGSKLAAMCDDFDAQMMSY; UniProt O61667 46-87, looked up, fragment) |  |  | about half the number of cell corpses as the full-length EGL-1 | 
L58A: EGL-1 mutant, Leu58 substituted by Ala (SEISSIGYEIGSKAAAMCDDFDAQMMSYSAHASDRSLFHRLLD; not fully specified) | did not significantly affect its interaction with CED-9; also recorded: retaining their ability to bind to CED-9 | significantly reduced ability |  | 
N-terminal half (residues 1-45) of EGL-1: N-terminal half of EGL-1, residues 1-45 (MSNVFDVQSSVFYNEKNMFYSSSQDFSSCEDSSQFADDSGFFDDS; not fully specified) | did not show detectable binding |  | did not induce cell death | 
mut2: EGL-1 double mutant G55E/F65A (SEISSIGYEIESKLAAMCDDADAQMMSYSAHASDRSLFHRLLD; not fully specified) | failed to bind to CED-9 | completely failed to disrupt the CED-4/CED-9 complex | induced no cell killing | interaction with (binding to) CED-9 [1, 3]: failed to bind to CED-9; interaction with (binding to) CED-9 ([1]; listed as G55E and F65A): completely abolished its interaction with CED-9; ability to displace CED-4 from the CED-4/CED-9 complex (CED-4/CED-9 complex; [3]): failed to bind to CED-9 or to displace CED-4
mut4: EGL-1 quadruple mutant G55E/L58A/F65A/M69A (SEISSIGYEIESKAAAMCDDADAQAMSYSAHASDRSLFHRLLD; also: fused to a dimerising Fc or GST (left off)) | failed to bind to CED-9 | completely failed to disrupt the CED-4/CED-9 complex |  | 
F146N: CED-9 mutant F146N (protein) MTRCTADNSLTNPAYRRRTMATGEMKEFLGIKGTEPTDFGINSDAQDLPSPSRQASTRRMSIGESIDGKINDWEEPRLDIEGFVVDYFTHRIRQNGMEWFGAPGLPCGVQPEHEMMRVMGTIFEKKHAENFETFCEQLLAVPRISNSLYQDVVRTVGNAQTDQCPMSYGRLIGLISFGGFVAAKMMESVELQGQVRNLFVYTSLFIKTRIRNNWKEHNRSWDDFMTLGKQMKEDYERAEAEKVGRRKQNRR |  |  |  | interaction with CED-4 (CED-4): significantly weakened interactions with CED-4
R211E/N212G: CED-9 mutant R211E/N212G (protein) MTRCTADNSLTNPAYRRRTMATGEMKEFLGIKGTEPTDFGINSDAQDLPSPSRQASTRRMSIGESIDGKINDWEEPRLDIEGFVVDYFTHRIRQNGMEWFGAPGLPCGVQPEHEMMRVMGTIFEKKHAENFETFCEQLLAVPRISFSLYQDVVRTVGNAQTDQCPMSYGRLIGLISFGGFVAAKMMESVELQGQVRNLFVYTSLFIKTRIEGNWKEHNRSWDDFMTLGKQMKEDYERAEAEKVGRRKQNRR |  |  |  | interaction with CED-4 (CED-4): significantly weakened interactions with CED-4
N158A/A159G/Q160A: CED-9 mutant N158A/A159G/Q160A (protein) MTRCTADNSLTNPAYRRRTMATGEMKEFLGIKGTEPTDFGINSDAQDLPSPSRQASTRRMSIGESIDGKINDWEEPRLDIEGFVVDYFTHRIRQNGMEWFGAPGLPCGVQPEHEMMRVMGTIFEKKHAENFETFCEQLLAVPRISFSLYQDVVRTVGAGATDQCPMSYGRLIGLISFGGFVAAKMMESVELQGQVRNLFVYTSLFIKTRIRNNWKEHNRSWDDFMTLGKQMKEDYERAEAEKVGRRKQNRR |  |  |  | interaction with CED-4 (CED-4): significantly weakened interactions with CED-4
G55E: EGL-1 mutant, Gly55 substituted by glutamate (protein, UniProt O61667 1-106, looked up, variant G55E) Programmed cell death …: MLMLTFASTSSDLLPMSNVFDVQSSVFYNEKNMFYSSSQDFSSCEDSSQFADDSEFFDDSEISSIGYEIGSKLAAMCDDFDAQMMSYSAHASDRSLFHRLLDFFAF | not sufficient to abolish interaction with CED-9; also recorded: retaining their ability to bind to CED-9 | significantly reduced ability | significantly lower level than that of the wild-type EGL-1 protein | interaction with (binding to) CED-9 ([1]; listed as EGL-1 (G55E)): retained its ability to interact with CED-9; ability to displace CED-4 from the CED-4/CED-9 complex (CED-4/CED-9 complex; listed as EGL-1 (G55E)): decreased ability to disrupt the CED-4/CED-9 complex
wild-type EGL-1 protein (residues 1-87): wild-type EGL-1 residues 1-87, lacking the four C-terminal hydrophobic residues (protein) MSNVFDVQSSVFYNEKNMFYSSSQDFSSCEDSSQFADDSGFFDDSEISSIGYEIGSKLAAMCDDFDAQMMSYSAHASDRSLFHRLLD |  | completely displaced CED-4 |  | 
